Measured values taken from patent US11203633B2, “Polynucleotides encoding antibodies or antigen binding fragments thereof that bind pseudomonas perv” (priority 2011, dated 2021).

Assays:
[1] = tested on: P. aeruginosa strains (PAO1, 33356, 6294, 6077, 6206, PA103A); experiment: Acute pneumonia model in mice, survival; assay type: in vivo, Pseudomonas aeruginosa
Procedure: (§1) Antibodies or PBS were administered 24 hours before infection in each model. P. aeruginosa acute pneumonia, keratitis, and thermal injury infection models were performed as described (DiGiandomenico, A., et al., Proc Natl Acad Sci USA 104, 4624-4629 (2007)), with modifications. In the acute pneumonia model, BALB/c mice (The Jackson Laboratory) were infected with P. aeruginosa strains suspended in a 0.05 ml inoculum. In the thermal injury model, CF-1 mice (Charles River) received a 10% total body surface area burn with a metal brand heated to 92° C. for 10 seconds. Animals were infected subcutaneously with P. aeruginosa strain 6077 at the indicated dose. For organ burden experiments, acute pneumonia was induced in mice followed by harvesting of lungs, spleens, and kidneys 24 hours post-infection for determination of CFU.
The in vivo effect of administration of an anti-PcrV antibodies was studied in mice using an acute pneumonia model. Groups of mice were treated with either increasing concentrations of the V2L2 antibody, a positive control anti-PcrV antibody (mAb166), or a negative control (R347), as shown in FIG. 13 (A-B). Groups of mice were also treated with either increasing concentrations of the V2L2 antibody, the PcrV antibody PcrV-02, or a negative control (R347), as shown in FIG. 13 (C-D). Twenty-four hours after treatment, all mice were infected with 5×10^7 CFU (C) Pseudomonas aeruginosa 6294 (06) or (D) PA103A (O11).
Groups of mice were treated with either increasing concentrations of the 11A6, 3G5 or V2L7, the same concentrations of 29D2, 1F3, 1E6, V2L2, LE10, SH3, 4A8, 2H3, or 21F1, increasing concentrations of the 29D2, increasing concentrations of the V2L2, the PcrV antibody PcrV-02, or a negative control (R347), as shown in FIG. 13 (E-H). Mice were injected intraperitoneally (IP) with mAbs 24 hours prior to intranasal infection with Pseudomonas strain 6077 (1×10^6 CFU/animal).

[2] = tested on: P. aeruginosa strains (PAO1, 33356, 6294, 6077, 6206); experiment: Acute pneumonia model in mice, organ burden (CFU in lung, spleen, kidneys); assay type: in vivo, Pseudomonas aeruginosa
Procedure: as §1
Organ burden of Pseudomonas-infected mice was also studied in response to administration of V2L2. FIG. 14 (A) Mice were treated with either 1 mg/kg R347 (control), or 1 mg/kg, 0.2 mg/kg, or 0.07 mg/kg of V2L2 and then were infected intranasally with 1.2×10^6 cfu of Pseudomonas 6206. FIG. 14 (B) Mice were also treated with either 15 mg/kg R347 (negative control); 15.0 mg/kg, 5.0 mg/kg, or 1.0 mg/kg mAb166 (positive control); or 5.0 mg/kg, 1.0 mg/kg, or 0.2 mg/kg V2L2 and then were infected intranasally with 5.5×10^6 cfu of Pseudomonas 6206.
The in vivo effect of combination administration of anti-Psl and anti-PcrV binding domains was further studied in mice using the antibodies V2L2 and WapR-004 (RAD). Groups of mice were treated with R347 (2.1 mg/kg—negative control), V2L2 (0.1 mg/kg), W4-RAD (0.5 mg/kg), or V2L2/W4 combination (either 0.1, 0.5, 1.0 or 2.0 mg/kg each). Twenty-four hours post-administration of antibody, all mice were infected with an inoculum containing 5.25×10^5 cfu 6206 (O11-ExoU+). Twenty-four hours post infection, lungs, spleens, and kidneys were harvested, homogenized, and plated for colony forming unit (CFU) identification per gram of tissue.

[3] = tested on: P. aeruginosa strains 6206 and 6294; experiment: Acute pneumonia model in mice, histological examination of lung tissue; assay type: in vivo, Pseudomonas aeruginosa
[4] = tested on: P. aeruginosa (6077 exoU+; 6206) lysis of rabbit red blood cells; experiment: Rabbit red blood cell (RBC) lysis inhibition assay; assay type: cell-based, Pseudomonas aeruginosa; details: FIG. 12F
Procedure: Percent inhibition of cytotoxicity analysis was analysed for the parental V2L2 mAb, mAb166 (positive control) and R347 (negative control), where the antibodies were administered to cultured broncho-epithelial cell line A549 combined with log-phase P. aeruginosa strain 6077 (exoU+) at a MOI of approximately 10. A549 lysis was assayed by measuring released lactate dehydrogenase (LDH) activity and lysis in the presence of mAbs was compared to wells without mAb to determine percent inhibition. The V2L2 mAb, mAb166 (positive control) and R347 (negative control) were evaluated for their ability to prevent lysis of RBCs, where the antibodies were mixed with log-phase P. aeruginosa 6077 (exoU^+) and washed rabbit red blood cells (RBCs) and incubated for 2 hours at 37°. Intact RBCs were pelleted and the extent of lysis determined by measuring the OD405 of the cell-free supernatant. Lysis in the presence of anti-PcrV mAbs was compared to wells without mAb to determine percent inhibition. The positive control antibody, mAb166, is a previously characterized anti-PcrV antibody (J Infect Dis. 186: 64-73 (2002), Crit Care Med. 40: 2320-2326 (2012)).

[5] = strain 6206 intranasal, V2L2 0.07-5 mg/kg, FIG. 14A-B
[6] = Table 5, 6206 5.25×10^5 cfu, R347 2.1 mg/kg, V2L2 0.1 mg/kg, WapR-004 0.5 mg/kg
[7] = Table 6A, strain 6294 1.33×10^7 CFU, 0.2 mg/kg (combination 0.1 mg/kg ea)
[8] = Table 6B, strain 6294 1.7×10^7 CFU, 0.2 mg/kg (combination 0.1 mg/kg ea)
[9] = Table 7, strain 6206 9.25×10^5 CFU, 0.2 mg/kg (combination 0.1 mg/kg ea)

B1: V2L2: anti-PcrV monoclonal antibody; VH SEQ ID NO:216, VL SEQ ID NO:217 (antibody, V domains shown)
VH: EMQLLESGGGLVQPGGSLRLSCAASGFTFSSYAMNWVRQAPGEGLEWVSAITISGITAYYTDSVKGRFTISRDNSKNTLYLQMNSLRAGDTAVYYCAKEEFLPGTHYYYGMDVWGQGTTVTVSS
VL: AIQMTQSPSSLSASVGDRVTITCRASQGIRNDLGWYQQKPGKAPKLVIYSASTLQSGVPSRFSGSGSGTDFTLSISSLQPDDFATYYCLQDYNYPWTFGQGTKVEIK
modifications: V2L2 VH; V2L2 VL
[1]; 6206, Bs3-V2L2 0.28 mg/kg, V2L2 0.2 mg/kg, monitored 120 hours, FIG. 21A
  survival: survived
[1]; 6294 and PA103A, 0.04-5 mg/kg, FIG. 13I
  protection against additional strains: protects against additional Pseudomonas strains (i.e., 6294 and PA103A)
[1]; increasing concentrations 24 hours before infection, strains 6077, 6294, PA103A, FIG. 13A-D
  survival: dose-dependent effect on improved survival even out to 168 hours post-infection
[1]; similar doses, strains 6077 and 6294, FIG. 13A-B
  protection compared to mAb166: significantly more potent protection than mAb166 at similar doses
[1]; strain 6077 (1×10^6 CFU/animal) intranasal, mAbs IP 24 hours prior, 11A6, 3G5, V2L7 5 or 1 mg/kg, 29D2 and V2L2 25 mg/kg, FIG. 13E-G
  protection in vivo: provides protection in vivo
[2]; 6206 (O11-ExoU+) 5.25×10^5 cfu, V2L2 0.1 mg/kg, W4-RAD 0.5 mg/kg, FIG. 15
  organ burden: effective in lowering organ burden
[2]; strain 6206, similar doses, FIG. 14B
  reduction in organ CFU compared to mAb166: significantly greater reduction in organ CFU than mAb166 at similar doses
[2]; [5]
  clearance in the kidney: little effect on clearance in the kidney
  dissemination to lung and spleen: greatly reduced dissemination to both the lung and spleen in a dose-dependent manner
[3]; [6]
  Inflammatory Infiltrate: PMN 3+
  Involved Lung Surface Area: 55%
  Overall Impression: Broncho interstitial pneumonia
[3]; Table 6A, BALB/c mice, strain 6294 1.33×10^7 CFU, 0.2 mg/kg (combination 0.1 mg/kg ea)
  Overall Impression: Broncho interstitial pneumonia
[3]; [7]
  Bacteria: Neg-1+
  Hemorrhage (extent): Extensive
  Inflammatory Infiltrate: PMN 3+
  Involved Lung Surface Area: (57%), mild epithelial injury,
[3]; Table 6B, BALB/c mice, strain 6294 1.7×10^7 CFU, 0.2 mg/kg (combination 0.1 mg/kg ea)
  Overall Impression: Broncho interstitial pneumonia
[3]; [8]
  Bacteria: Neg
  Inflammatory Infiltrate: PMN 2+
  Involved Lung Surface Area: (30%), mild epithelial injury,
[3]; Table 7, BALB/c mice, strain 6206 9.25×10^5 CFU, 0.2 mg/kg (combination 0.1 mg/kg ea)
  Overall Impression: Broncho interstitial pneumonia
[3]; [9]
  Inflammatory Infiltrate: PMN 2-3+
  Involved Lung Surface Area: (40%), mild epithelial injury,
[4]
  potency in prevention of RBC lysis, V2L2 vs 29D2: more potent in prevention of RBC lysis than the 29D2
